In patent publication US8058228B2, “Leptin peptide antagonists” (Boston Biomedical Research Institute, priority 2004, dated 2011):

Biological target: T1, OB-R (Homo sapiens, UniProt P48357)
T1 construct: After confirming via Western that the primary EEC and ESC and endometrial cell lines utilized herein had OB-R; endogenous in cells; host or cells: primary human EEC and ESC; Ishikawa (ECACC 9832301) and HES cell lines
T1 sequence (P48357 22-1165): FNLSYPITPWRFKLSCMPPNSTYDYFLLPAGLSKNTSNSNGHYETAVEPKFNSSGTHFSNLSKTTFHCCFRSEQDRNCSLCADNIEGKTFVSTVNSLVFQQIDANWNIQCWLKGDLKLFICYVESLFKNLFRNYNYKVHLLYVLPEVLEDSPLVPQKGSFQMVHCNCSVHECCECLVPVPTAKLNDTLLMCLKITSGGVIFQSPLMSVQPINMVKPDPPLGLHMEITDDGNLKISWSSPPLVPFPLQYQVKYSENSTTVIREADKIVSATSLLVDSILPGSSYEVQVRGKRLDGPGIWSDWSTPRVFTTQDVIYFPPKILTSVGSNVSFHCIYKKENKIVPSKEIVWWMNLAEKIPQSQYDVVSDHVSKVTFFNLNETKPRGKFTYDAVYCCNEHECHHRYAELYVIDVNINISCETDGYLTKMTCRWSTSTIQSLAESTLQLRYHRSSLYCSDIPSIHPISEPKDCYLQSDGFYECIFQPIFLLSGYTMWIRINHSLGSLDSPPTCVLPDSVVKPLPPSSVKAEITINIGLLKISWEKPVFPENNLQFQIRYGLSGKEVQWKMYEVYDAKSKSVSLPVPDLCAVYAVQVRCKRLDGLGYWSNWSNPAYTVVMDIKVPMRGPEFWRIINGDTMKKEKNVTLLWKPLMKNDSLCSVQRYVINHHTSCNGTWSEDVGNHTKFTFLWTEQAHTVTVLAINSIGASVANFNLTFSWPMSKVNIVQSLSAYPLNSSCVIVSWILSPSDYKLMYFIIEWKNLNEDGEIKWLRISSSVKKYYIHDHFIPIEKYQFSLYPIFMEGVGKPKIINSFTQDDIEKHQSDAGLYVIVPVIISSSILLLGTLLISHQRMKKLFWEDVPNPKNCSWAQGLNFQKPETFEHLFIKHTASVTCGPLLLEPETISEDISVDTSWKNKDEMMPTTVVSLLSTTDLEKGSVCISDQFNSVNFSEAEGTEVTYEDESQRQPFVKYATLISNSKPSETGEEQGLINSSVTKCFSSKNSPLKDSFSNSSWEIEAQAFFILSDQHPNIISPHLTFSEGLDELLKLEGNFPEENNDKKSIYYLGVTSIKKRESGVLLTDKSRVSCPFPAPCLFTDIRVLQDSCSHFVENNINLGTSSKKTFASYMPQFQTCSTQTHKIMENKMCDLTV
Assay: IL-1β and IL-1Ra levels in conditioned medium of human endometrial epithelial cells (ELISA)
Assay type: cell-based
Details: EEC, leptin 10 nM, 24 h; for effect on leptin-induced increase in IL-1Ra levels / effect on leptin-induced increase in IL-1β levels: LPA-2 30 μM
Protocol: Primary human endometrial cells (ESC and EEC) were cultured for 5-9 days in DMEM-F12 medium containing 5% fetal bovine serum (FBS), 5 μg/ml insulin, 1% amphopthericin B, 100 μg/ml streptomycin and 100 U/ml penicillin until they were 80% confluent. Two types of endometrial epithelial cell lines, HES (originally derived from a benign proliferative endometrium) and Ishikawa (human endometrial epithelial adenocarcinoma, ECACC 9832301, Wiltshire, England) were cultured under the same conditions described above. The cells were washed twice with 100 mM phosphate saline buffer (PBS), pH 7.2 and cultured for additional 2 days in the same medium but without FBS (basal medium). Cells were washed as described before and cultured in basal medium containing leptin (0, 3, 10 or 62 nM) or IL-1β (0.6, 3 and 10 nM).
The anti-OB-R antibody (10 and 20 μg/ml) and LPA-2, a specific inhibitor of OB-R (3, 120, 300 nM or 30 μM) were used to assess whether leptin-induced effects were regulated primarily by the OB-R. Non-specific species-matched IgGs to the OB-R antibody and a scrambled version of LPA-2 (LPA-2Sc) served as negative controls (Gonzalez and Leavis, Endocrine 21: 185-195 (2003)). Inhibitors of IL-1R were used (monoclonal antibody anti-IL-1R tl and IL-1Ra) to assess whether leptin activated IL-1 induced signaling pathways or just activated similar components responsible for LIF/LIF-R expression. Treatment with the cytokine, inhibitor or the two combined was implemented for 5, 15, 30 and 60 min, and 24 and 48 h. The cells were prepared for Western blot analysis. The conditioned media was collected, lyophilized and stored at −80° C. until analysis for LIF, IL-1β and IL-1Ra by ELISA could be performed. Duplicate wells were run for each treatment and the experiments repeated at least three times with different cell preparations.
Conditioned media from cells cultured under the experimental conditions described above were used to quantify the secretion of LIF, IL-1β and IL-1Ra by ELISA (Quantikine®, R&D Systems). The experiments were replicated three times and standards, controls, and samples were assayed in duplicate. Cytokine concentrations as determined by ELISA were within the range of the standard curve and were expressed in pg/ml/mg protein. The intra- and interassay coefficients of variation were between 5-8% and 8.5-10%, respectively. The lowest detectable concentration of each cytokine by ELISA was LIF (9 pg/ml), IL-1 (0.11 pg/ml) and IL-1Ra (15.6 pg/ml). These concentrations are similar to those reported by the manufacturer. LIF-ELISA is reported by the manufacturer to have a sensitivity of less than 8 pg/ml for both natural and recombinant human LIF and 100% specificity (no significant cross-reactivity or interference with a diversity of human and mouse cytokines and growth factors was observed). The performance characteristics for human IL-1β and IL-1Ra ELISAs reported are: 100% specificity, sensitivity 0.1 pg/ml and 14 pg/ml, respectively.

Substance	effect on leptin-induced increase in IL-1Ra levels	effect on leptin-induced increase in IL-1β levels	IL-1Ra levels after leptin	IL-1β levels after leptin
SRNVIQISNDLENLRDLLHVLAFSKS [LPA-2, 26 amino acid peptide, residues 70-95 of helix III of the human leptin molecule; leptin peptide antagonist]	abrogated	abrogated		
leptin: human recombinant leptin (R&D Systems), OB-R ligand used as stimulus			elevated levels	elevated levels
VAEVLNRSDLIQRISFSLDLNNSKLH [LPA-2Sc, scrambled version of LPA-2, negative control, reference compound]	not affected	not affected		
